Reference: patent US6420338B1, “Inhibition of the Src kinase family pathway as a method of treating HBV infection and hepatocellular carcinoma” (New York University Medical Center, priority 1997, dated 2002)

Columns and labels:
MAP kinase (ERK2) [1] = test: MAP kinase (ERK2) immunoprecipitation MBP kinase assay in Chang cells expressing HBx; assay type: cell-based
AP-1 [2] = test: AP-1 electrophoretic mobility shift assay (EMSA) on nuclear extracts of Chang cells expressing HBx; assay type: cell-based; conditions: cotransfection of increasing amounts of plasmid
Method: (§1) FIGS. 3A and 3B. Transcriptional activation of AP-1 by HBx involves activation of Src kinases. Chang cells transfected with 8 μg plasmids pCMV-X or pCMV-Xo, with or without cotransfection of pCsk for 18 h, then serum starved for 18 h. (FIG. 3A) Cell extracts were prepared for AP-1 EMSA as described (Benn et al., 1996, supra) using a ^32P-labeled dsDNA oligonucleotide probe containing one AP-1 binding site. Reactions were carried out using 3 μg of nuclear extract, labeled oligonuleotide and 1 μg of poly(dI-dC) for 30 min at 23° C. Protein-DNA complexes were resolved by electrophoresis on 4% polyacrylamide gels and visualized by PhosphorImage analysis. As a positive control for AP-1 stimulation, cells were treated with 20 μM TPA for 30 min. (FIG. 3B) Cells were transfected as above but contained in addition 3 μg of plasmid pAP-1LUC, which encodes the luciferase reporter under the control of four AP-1 binding sites and a minimal TATA box promoter. Serum starved cells were harvested 18 h after transfection and the level of expression of the luciferase reporter assayed. Results are the average of three independent experiments.
Nuclear extracts were prepared according to a modified Dignam protocol (Su and Schneider, 1996). […]

AP-1 [3] = test: AP-1 dependent luciferase reporter in Chang cells expressing HBx; assay type: cell-based; conditions: AP-1 luciferase reporter
Method: as §1
Here it is shown that HBx activation of AP-1 DNA binding activity and AP-1 directed transcription, both involve an essential requirement for HBx activation of Src tyrosine kinases. […]

N-Myc = N-Myc immunoblot of nuclear extracts of Chang cells expressing HBx; assay type: cell-based; conditions: Chang cells co-expressing HBx; serum-starved 20 hours
Method: Cells were lysed in 1% Triton, 20 mM Hepes pH 7.4, 150 mM NaCl, 10% Glycerol, 1 mM Na3VO4, 50 mM NaF, 1 mM PMSF, 10 μg/ml aprotinin, and 10 μg/ml leupeptin. Equal amounts of protein were immunoprecipitated on ice for 2 hours and the immune complexes were collected by incubation with protein A-agarose (Santa Cruz) for 60 minutes at 4° C. Immunoprecipitates were washed three times with HNTG (20 mM Hepes pH 7.4, 150 mM NaCl, 0.1% Triton, and 10% Glycerol), resuspended in Laemmli sample buffer, heated to 95° C. for 10 minutes, resolved by electrophoresis on SDS-polyacrylamide gels, and immunoblotted to nitrocellulose using standard techniques (Harlow and Lane, 1988, Antibodies: A Laboratory Manual (Cold Spring Harbor, N.Y.; CSH Laboratory Press)). Immunoblots were visualized using the ECL chemiluminescence system (Amersham).
Nuclear extracts were prepared according to a modified Dignam protocol (Su and Schneider, 1996). Cell pellets were resuspended in 250 μl of cold Buffer A (10 mM Hepes pH 7.9, 1.5 mM MgCl2, 10 mM KCl, 0.5 mM DTT, 1 mM PMSF, 10 μg/ml leupeptin and 10 μg/ml aprotinin), swollen on ice for 10 min, vortexed for 10 sec, and centrifuged for 10 sec at 12,000×g. […]

MAP kinase (ERK2) [4] = test: MAP kinase (ERK2) MBP kinase assay in Chang cells transfected with wtWHV; assay type: cell-based; conditions: Chang cells co-transfected with wtWHV; serum-starved
Method: FIG. 6. Woodchuck Hepatitis B Virus (WHV) HBx protein (WHx) activates a Src-Ras signaling cascade during WHV replication in cultured cells. […] Eighteen hours post-transfection, cells were serum-starved in 0.5% CS for 20 hours, MAP kinase (ERK-2) was immunoprecipitated from equal amounts of cell lysates and pellets were subjected to an in vitro MBP kinase assay.
To assay for MAP kinase activity, cells were lysed in freshly prepared lysis buffer (10 mM Tris HCl pH 7.5, 1% Triton X-100, 0.5% NP-40, 1 mM EDTA, 1 mM EGTA, 1 mM Na3VO4, 50 mM NaF, 1 mM PMSF, 40 mM PPi, 10 μg/ml aprotinin, and 10 μg/ml leupeptin) and MAP kinase was immunoprecipitated using 1 μg/ml anti-ERK2 antibodies from equal amounts of protein. After 4 washes with lysis buffer, and 2 with kinase buffer (20 mM Hepes pH 7.4, 10 mM MgCl2), the immunoprecipitates were incubated with kinase buffer including 0.5 mg/ml myelin basic protein (MBP, Sigma), 10 mM ATP and 5 μCi [γ-^32P]ATP for 30 minutes at 30° C. […]
To determine whether WHx also requires activation of Src family kinases for stimulation of Ras signaling during ongoing viral replication, Chang cells were co-transfected with plasmids synthesizing wtWHV and dominant-negative Ras (RasDN), dominant-negative Src (SrcK^−), or Csk proteins, and activation of MAP kinase was measured. […]

WHV [5] = test: WHV replication in Chang cells, Southern blot of intracellular core-associated viral DNA; assay type: cell-based, Woodchuck Hepatitis B Virus; conditions: Chang cells co-transfected with wtWHV; 3 days post-transfection
Method: FIG. 7. WHx requires activation of Src family kinase for WHV replication. Chang cells were co-transfected with 20 μg PCWHV, wtWHV, wtWHV and RasDN (dominant-negative) (10 μg), or wtWHV and Csk (10 μg). Three days post-transfection viral core-associated DNA was isolated, purified, and subjected to Southern blot analysis using a full-length ^32P-labeled WHV genomic probe.
Chang cells were transfected with infectious WHV clones, (2×10 cm plates) were washed twice with PBS and lysed in 500 μl lysis buffer/10 cm plate (20 mM Tris HCl pH 7.5, 1 mM EDTA, 100 mM NaCl, 0.5% NP-40) for 10-15 minutes. Lysates were centrifuged at 12,000×g for 30 minutes, MgCl2 was adjusted to 10 mM, DNAseI (Boehringer Mannheim) was added to 20 U /ml and the lysates were incubated at 37° C. for 2 hours. Following DNAse I treatment, the lysates were centrifuged for 5 min at 12,000×g, layered onto a 20% sucrose cushion (300 μl of 20% sucrose in 20 mM Tris HCl pH 8.0, 150 mM NaCl) and centrifuged for 178,000×g for 3 hours at 20° C. […]
Chang cells were co-transfected with plasmids encoding either wtWHV, pCWHV, wtWHV and RasDN, or wtWHV and Csk, intracellular core-associated viral DNA was isolated 3 days post-transfection, and purified viral DNA analyzed by Southern blot hybridization as described above (FIG. 7).

WHV [6] = test: Northern blot of WHV viral mRNAs in Chang cells; assay type: cell-based, Woodchuck Hepatitis B Virus; conditions: Chang cells co-transfected with wtWHV
Method: Chang cells were washed twice with PBS and total RNA prepared according to the manufacturer's instructions (RNeasy mini kit; Qiagen). 15 μg total RNA per sample were resolved through a 1.2% formaldehyde-agarose gel (Sambrook et al., 1989, supra), transferred to Duralon UV membrane, and pre-hybridized in Quick-Hyb solution (Stratagene) at 65° C. Hybridization to 32P-labeled full length WHV probe was carried out in the same solution at 65° C., washed as described above, and autoradiographed for 1 day.
It was next addressed whether the stimulation of viral replication by WHx was a result of transcriptional transactivation of WHV genes by WHx. Chang cells were transfected with wtWHV or pCWHV plasmids. Total cellular RNA was isolated 4 days post-transfection, equal amounts of RNA were resolved by electrophoresis through a 1.2% formaldehyde-agarose gel, and the viral mRNAs were visualized by Northern blot analysis using a ^32P-labeled probe corresponding to the entire WHV genome (FIG. 8, lanes 1 and 4). Steady-state levels of the genomic viral mRNAs was enhanced ˜3-5 fold in Chang cells expressing wtWHV as compared to PCWHV. […]

CMV promoter = test: CMV-βgal reporter control (β-galactosidase activity); assay type: cell-based; conditions: co-expression with CMV-βgal
Source text: To assess whether HBx activation of a Src signaling cascade plays an essential role in transcriptional upregulation of the viral mRNAs, Chang cells were co-transfected with wtWHV and either RasDN or Csk plasmids, and the RNA visualized by Northern analysis (FIG. 7, lanes 2 and 3). […] To ensure that the decrease in synthesis of WHV RNA by Csk was not the unforseen consequence of Csk inhibition of the CMV promoter (which drives synthesis of the WHV pregenomic RNA), control experiments assessing the effect of Csk on a CMV-βgal reporter were carried out. […] However, the WHx-induced increase in mRNA abundance (˜3-5 fold) is much less then the HBx-induced increase in viral DNA synthesis (˜20-30 fold). […] The stimulation of Src signaling cascades by HBx must therefore promote WHV replication independent of the effect of WHx on viral transcription.

B1: Csk: Csk (carboxyl-terminal Src kinase), a specific physiologic inhibitor of Src kinase, expressed from a CMV promoter plasmid (protein, UniProt P41240 2-450, looked up)
Tyrosine-protein kinase CSK: SAIQAAWPSGTECIAKYNFHGTAEQDLPFCKGDVLTIVAVTKDPNWYKAKNKVGREGIIPANYVQKREGVKAGTKLSLMPWFHGKITREQAERLLYPPETGLFLVRESTNYPGDYTLCVSCDGKVEHYRIMYHASKLSIDEEVYFENLMQLVEHYTSDADGLCTRLIKPKVMEGTVAAQDEFYRSGWALNMKELKLLQTIGKGEFGDVMLGDYRGNKVAVKCIKNDATAQAFLAEASVMTQLRHSNLVQLLGVIVEEKGGLYIVTEYMAKGSLVDYLRSRGRSVLGGDCLLKFSLDVCEAMEYLEGNNFVHRDLAARNVLVSEDNVAKVSDFGLTKEASSTQDTGKLPVKWTAPEALREKKFSTKSDVWSFGILLWEIYSFGRVPYPRIPLKDVVPRVEKGYKMDAPDGCPPAVYEVMKNCWHLDAAMRPSFLQLREQLEHIKTHELHL
effect on HBx activation of ERK2 (MAP kinase (ERK2) [1]; Chang cells co-expressing HBx, serum-starved in 0.5% CS for 24 hours): impaired
effect on HBx-induced activation of MAP kinase (MBP phosphorylation) (MAP kinase (ERK2) [1]; Chang cells co-transfected with HBx, serum-starved 20 hours, 2% serum restored for 2 hours): abolished
effect on activation of MAP kinase by insulin (MAP kinase (ERK2) [1]; Chang cells, overexpression, insulin stimulation): only slightly impaired
effect on HBx induction of AP-1 DNA binding complexes (AP-1 [2]): suppressed
effect on HBx induced activation of AP-1 dependent transcription (AP-1 [3]): fully blocked
effect on increase in N-Myc protein by HBx (N-Myc): impaired
effect on downstream activation of MAP kinase by wtWHV (MAP kinase (ERK2) [4]): efficiently inhibited
effect on WHV replication (viral DNA replicative intermediates) (WHV [5]): completely abolished
reduction of WHV RNA level (WHV [6]): 3-5 fold
effect on expression of βgal protein from CMV-βgal (β-galactosidase activity) (CMV promoter): did not significantly alter
